Results reported in US20250320281A1.

Legend:
Test in all cases: cell-based or functional assay
[1] = target: HIV-1 Env of isolate TR0.11 (clade B pseudovirus) (HIV-1)
[2] = target: HIV-1 Env of isolate CAP45 (clade C pseudovirus) (HIV-1)
[3] = target: HIV-1 Env of isolate AC10 (clade B pseudovirus) (HIV-1)
[4] = target: HIV-1 Env of isolate DU422 (clade C pseudovirus) (HIV-1)
[5] = target: MuLV envelope protein (control pseudovirus) (MuLV)
[6] = target: HIV-1 Env of isolate REJ04541 (clade B pseudovirus) (HIV-1)
[7] = target: HIV-1 92UG024 Env (pseudovirus) (HIV-1 isolate 92UG024 (clade D))
[8] = target: HIV-1 92UG005 Env (pseudovirus) (HIV-1 isolate 92UG005 (clade D))
[9] = target: HIV-1 MGRM-C-027 Env (pseudovirus) (HIV-1 isolate MGRM-C-027 (clade C))
[10] = target: aMLV envelope (control pseudovirus) (aMLV)
[11] = target: HIV-1 92RW020 Env (pseudovirus) (HIV-1 isolate 92RW020 (clade A))
[12] = target: HIV-1 NL43 Env (pseudovirus) (HIV-1 isolate NL43 (clade B))
[13] = target: HIV-1 MGRM-AG-005 Env (pseudovirus) (HIV-1 isolate MGRM-AG-005 (clade AG))
[14] = target: HIV-1 MGRM-C-026 Env (pseudovirus) (HIV-1 isolate MGRM-C-026 (clade C))
[15] = target: HIV-1 Env of isolate 94UG103 (pseudovirus) (HIV-1)
[16] = target: HIV-1 Env of isolate MGRM-F1-004 (HIV-1)
[17] = target: HIV-1 Env of isolate MGRM-F1-006 (HIV-1)
[18] = target: HIV-1 Env of pseudovirus MGRM-AG-003 (subtype AG) (HIV-1)
[19] = target: HIV-1 Env of isolate MGRM-F1-010 (HIV-1)
[20] = target: HIV-1 Env of pseudovirus MGRM-AG-008 (subtype AG) (HIV-1)
[21] = target: HIV-1 Env of pseudovirus MGRM-AG-002 (subtype AG) (HIV-1)
[22] = target: HIV-1 Env of isolate MG RM-D-026 (HIV-1)
[23] = target: HIV-1 Env of pseudovirus MGRM-AG-011 (subtype AG) (HIV-1)
[24] = target: HIV-1 Env of isolate MGRM-F1-008 (HIV-1)
[25] = target: HIV-1 Env of isolate MGRM-Chronic-B-011 (HIV-1)
[26] = target: HIV-1 Env of isolate MGRM-Chronic-B-003 (HIV-1)
[27] = target: HIV-1 Env of isolate APV13 (HIV-1)
[28] = target: HIV-1 Env of isolate MGRM-Chronic-B-020 (HIV-1)
HIV-1 APV13 Env (HIV-1) = target: HIV-1 APV13 Env (HIV-1)
[29] = target: HIV-1 92BR020 Env (HIV-1)
HIV-1 CMU02 Env (HIV-1) = target: HIV-1 CMU02 Env (HIV-1)
[30] = target: HIV-1 MGRM-D-018 Env (HIV-1)
aMLV envelope (aMLV) = target: aMLV envelope (aMLV)
[31] = target: HIV-1 94UG103 Env (HIV-1)
[32] = target: HIV-1 MGRM-A-010 envelope glycoprotein (Env) on pseudovirus (HIV-1 isolate MGRM-A-010 (clade A))
[33] = target: HIV-1 94UG103 envelope glycoprotein (Env) on pseudovirus (HIV-1 isolate 94UG103 (clade A))

1443_C16 (PG16) (TCN-116) (antibody), sequence (VH): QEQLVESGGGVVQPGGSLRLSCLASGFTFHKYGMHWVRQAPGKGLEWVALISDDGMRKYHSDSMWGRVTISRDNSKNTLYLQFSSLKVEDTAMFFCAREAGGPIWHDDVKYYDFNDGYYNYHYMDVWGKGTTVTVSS
1443_C16 (PG16) (TCN-116) (antibody), sequence (VL): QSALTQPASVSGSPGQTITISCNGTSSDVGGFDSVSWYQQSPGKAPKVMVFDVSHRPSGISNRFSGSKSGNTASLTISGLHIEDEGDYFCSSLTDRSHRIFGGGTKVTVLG

Which IC50 (neutralization, TZM-bl pseudovirus assay) [1] does the source give for 1443_C16 (PG16) (TCN-116) (antibody) here?
Its IC50 (neutralization, TZM-bl pseudovirus assay) is 3.61 µg/mL.

What about the IC50 (neutralization, TZM-bl pseudovirus assay) [2] of the same substance?
Its IC50 (neutralization, TZM-bl pseudovirus assay) is < 0.01 µg/mL.

And the IC50 (neutralization, TZM-bl pseudovirus assay) [3]?
The IC50 (neutralization, TZM-bl pseudovirus assay) was < 0.01 µg/mL.

And the IC50 (neutralization, TZM-bl pseudovirus assay) [4]?
The IC50 (neutralization, TZM-bl pseudovirus assay) was 0.59 µg/mL.

And the IC50 (neutralization, TZM-bl pseudovirus assay) [5]?
The IC50 (neutralization, TZM-bl pseudovirus assay) was > 25 µg/mL.

What about the IC50 (neutralization, TZM-bl pseudovirus assay) [6] of the same substance?
Its IC50 (neutralization, TZM-bl pseudovirus assay) is < 0.01 µg/mL.

With 5123_A06 (PGT-125) (antibody) as the substance, how does the Neutralization by PGT-125, IC50 [7] read?
The Neutralization by PGT-125, IC50 was > 10 µg/mL.

What about the Neutralization by PGT-125, IC80 [7] of the same substance?
Its Neutralization by PGT-125, IC80 is > 10 µg/mL.

And the Neutralization by PGT-125, IC90 [7]?
The Neutralization by PGT-125, IC90 was > 10 µg/mL.

And the Neutralization by PGT-125, IC95 [7]?
The Neutralization by PGT-125, IC95 was > 10 µg/mL.

And the Neutralization by PGT-125, IC50 [8]?
Its Neutralization by PGT-125, IC50 is > 10 µg/mL.

What about the Neutralization by PGT-125, IC80 [8] of the same substance?
The Neutralization by PGT-125, IC80 was > 10 µg/mL.

And the Neutralization by PGT-125, IC90 [8]?
Its Neutralization by PGT-125, IC90 is > 10 µg/mL.

What about the Neutralization by PGT-125, IC95 [8] of the same substance?
The Neutralization by PGT-125, IC95 was > 10 µg/mL.

And the Neutralization by PGT-125, IC50 [9]?
The Neutralization by PGT-125, IC50 was > 10 µg/mL.

And the Neutralization by PGT-125, IC80 [9]?
Its Neutralization by PGT-125, IC80 is > 10 µg/mL.

And the Neutralization by PGT-125, IC90 [9]?
The Neutralization by PGT-125, IC90 was > 10 µg/mL.

And the Neutralization by PGT-125, IC95 [9]?
The Neutralization by PGT-125, IC95 was > 10 µg/mL.

And the Neutralization by PGT-125, IC50 [10]?
Its Neutralization by PGT-125, IC50 is > 10 µg/mL.

And the Neutralization by PGT-125, IC80 [10]?
The Neutralization by PGT-125, IC80 was > 10 µg/mL.

And the Neutralization by PGT-125, IC90 [10]?
The Neutralization by PGT-125, IC90 was > 10 µg/mL.

And the Neutralization by PGT-125, IC95 [10]?
Its Neutralization by PGT-125, IC95 is > 10 µg/mL.

What about the Neutralization by PGT-125, IC50 [11] of the same substance?
Its Neutralization by PGT-125, IC50 is 0.0028 µg/mL.

What about the Neutralization by PGT-125, IC80 [11] of the same substance?
The Neutralization by PGT-125, IC80 was 0.011 µg/mL.

And the Neutralization by PGT-125, IC90 [11]?
The Neutralization by PGT-125, IC90 was 0.0248 µg/mL.

And the Neutralization by PGT-125, IC95 [11]?
Its Neutralization by PGT-125, IC95 is 0.0526 µg/mL.

And the Neutralization by PGT-125, IC50 [12]?
The Neutralization by PGT-125, IC50 was > 10 µg/mL.

And the Neutralization by PGT-125, IC80 [12]?
Its Neutralization by PGT-125, IC80 is > 10 µg/mL.

And the Neutralization by PGT-125, IC90 [12]?
The Neutralization by PGT-125, IC90 was > 10 µg/mL.

And the Neutralization by PGT-125, IC95 [12]?
Its Neutralization by PGT-125, IC95 is > 10 µg/mL.

What about the Neutralization by PGT-125, IC50 [13] of the same substance?
Its Neutralization by PGT-125, IC50 is > 10 µg/mL.

What about the Neutralization by PGT-125, IC80 [13] of the same substance?
Its Neutralization by PGT-125, IC80 is > 10 µg/mL.

And the Neutralization by PGT-125, IC90 [13]?
Its Neutralization by PGT-125, IC90 is > 10 µg/mL.

And the Neutralization by PGT-125, IC95 [13]?
The Neutralization by PGT-125, IC95 was > 10 µg/mL.

What about the Neutralization by PGT-125, IC50 [14] of the same substance?
The Neutralization by PGT-125, IC50 was 0.0106 µg/mL.

And the Neutralization by PGT-125, IC80 [14]?
Its Neutralization by PGT-125, IC80 is 0.035 µg/mL.

And the Neutralization by PGT-125, IC90 [14]?
The Neutralization by PGT-125, IC90 was 0.0705 µg/mL.

What about the Neutralization by PGT-125, IC95 [14] of the same substance?
Its Neutralization by PGT-125, IC95 is 0.134 µg/mL.

How did the Primary Neutralization Index (B cell culture supernatant) [15] turn out when 4858_P08 (PGT-123) (antibody) was run?
The Primary Neutralization Index (B cell culture supernatant) was 1.1.

For VRC01 (antibody), which IC50 [16] is on record?
Its IC50 is 0.305 µg/mL.

And the IC50 [17]?
The IC50 was 2.86 µg/mL.

And the IC50, pseudovirus neutralization [18]?
Its IC50, pseudovirus neutralization is 0.043 µg/mL.

And the IC50 [19]?
Its IC50 is 0.097 µg/mL.

And the IC50, pseudovirus neutralization [20]?
Its IC50, pseudovirus neutralization is 0.124 µg/mL.

And the IC50, pseudovirus neutralization [21]?
The IC50, pseudovirus neutralization was 0.95 µg/mL.

And the IC50 [22]?
The IC50 was 0.435 µg/mL.

And the IC50, pseudovirus neutralization [23]?
The IC50, pseudovirus neutralization was 0.084 µg/mL.

And the IC50 [24]?
The IC50 was 1.11 µg/mL.

How did the IC50 (µg/mL), pseudovirus neutralization [25] turn out when PGV04 (antibody) was run?
Its IC50 (µg/mL), pseudovirus neutralization is 0.497 µg/mL.

What about the IC50 (µg/mL), pseudovirus neutralization [26] of the same substance?
Its IC50 (µg/mL), pseudovirus neutralization is 0.258 µg/mL.

What about the IC50 (µg/mL), pseudovirus neutralization [27] of the same substance?
Its IC50 (µg/mL), pseudovirus neutralization is 1.23 µg/mL.

And the IC50 (µg/mL), pseudovirus neutralization [28]?
Its IC50 (µg/mL), pseudovirus neutralization is 1.26 µg/mL.

What does the source list for 4877_D15 (PGT-122) (antibody)?
Neutralization by PGT-122, IC50 (HIV-1 APV13 Env (HIV-1)): 0.992 µg/mL; Neutralization by PGT-122, IC80 (HIV-1 APV13 Env (HIV-1)): 4.14 µg/mL; Neutralization by PGT-122, IC90 (HIV-1 APV13 Env (HIV-1)): 8.6 µg/mL; Neutralization by PGT-122, IC95 (HIV-1 APV13 Env (HIV-1)): > 10 µg/mL; Neutralization by PGT-122, IC50 [29]: 0.0337 µg/mL; Neutralization by PGT-122, IC80 [29]: 0.0929 µg/mL; Neutralization by PGT-122, IC90 [29]: 0.168 µg/mL; Neutralization by PGT-122, IC95 [29]: 0.289 µg/mL; Neutralization by PGT-122, IC50 (HIV-1 CMU02 Env (HIV-1)): > 10 µg/mL; Neutralization by PGT-122, IC80 (HIV-1 CMU02 Env (HIV-1)): > 10 µg/mL; Neutralization by PGT-122, IC90 (HIV-1 CMU02 Env (HIV-1)): > 10 µg/mL; Neutralization by PGT-122, IC95 (HIV-1 CMU02 Env (HIV-1)): > 10 µg/mL; Neutralization by PGT-122, IC50 [30]: 0.0115 µg/mL; Neutralization by PGT-122, IC80 [30]: 0.035 µg/mL; Neutralization by PGT-122, IC90 [30]: 0.0674 µg/mL; Neutralization by PGT-122, IC95 [30]: 0.125 µg/mL; Neutralization by PGT-122, IC50 (aMLV envelope (aMLV)): > 10 µg/mL; Neutralization by PGT-122, IC80 (aMLV envelope (aMLV)): > 10 µg/mL; Neutralization by PGT-122, IC90 (aMLV envelope (aMLV)): > 10 µg/mL; Neutralization by PGT-122, IC95 (aMLV envelope (aMLV)): > 10 µg/mL; Neutralization by PGT-122, IC50 [31]: 1.46 µg/mL; Neutralization by PGT-122, IC80 [31]: 6.58 µg/mL; Neutralization by PGT-122, IC90 [31]: > 10 µg/mL; Neutralization by PGT-122, IC95 [31]: > 10 µg/mL

1496_C09 (PG9) (TCN-109) (antibody) was tested. Which neutralization IC50 [32] did it give?
Its neutralization IC50 is 0.0375 µg/mL.

And the neutralization IC80 [32]?
Its neutralization IC80 is 0.121 µg/mL.

And the neutralization IC90 [32]?
Its neutralization IC90 is 0.242 µg/mL.

What about the neutralization IC95 [32] of the same substance?
Its neutralization IC95 is 0.456 µg/mL.

What about the neutralization IC50 [33] of the same substance?
The neutralization IC50 was 0.31 µg/mL.

What about the neutralization IC80 [33] of the same substance?
Its neutralization IC80 is 1.95 µg/mL.

And the neutralization IC90 [33]?
Its neutralization IC90 is 5.54 µg/mL.
